Results published in the supplement of paper PMC10065799, “High-throughput profiling of sequence recognition by tyrosine kinases and SH2 domains using bacterial peptide display” (eLife, 2023).

system: c-Abl (mouse); experiment: phosphorylation enrichment, bacterial display (enrichment ratio); higher = better substrate or ligand; peptides without Tyr show the background
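Throughout, for SH2 binding enrichment of the phosphorylated peptide, bacterial display: peptide library displayed on the E. coli surface as eCPX fusions, selected cells deep-sequenced, score is each peptide's frequency after selection divided by its frequency in the input.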
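Throughout, for phosphorylation enrichment, bacterial display: 11-residue human phosphosite peptides and single-mutation variants displayed on the E. coli surface, counted by deep sequencing, each peptide's frequency after selection divided by its frequency in the unselected input library; frequency after pTyr selection over input frequency; kinase dosed for 20-30% of maximal phosphorylation in three min.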

Going from PADSGYPAFLG [ATP6V1A_Y374_YF] to GAVGNYSGGLA [MGMT_Y158], the phosphorylation enrichment falls from 1.12 to 0.43.

With NHFKIYNLFAE [PTEN_Y68_C71Y_YF] the phosphorylation enrichment was 0.573.

molecular target: MERTK (UniProt Q12866); experiment: as above
Sequence (Q12866 whole entry, looked up): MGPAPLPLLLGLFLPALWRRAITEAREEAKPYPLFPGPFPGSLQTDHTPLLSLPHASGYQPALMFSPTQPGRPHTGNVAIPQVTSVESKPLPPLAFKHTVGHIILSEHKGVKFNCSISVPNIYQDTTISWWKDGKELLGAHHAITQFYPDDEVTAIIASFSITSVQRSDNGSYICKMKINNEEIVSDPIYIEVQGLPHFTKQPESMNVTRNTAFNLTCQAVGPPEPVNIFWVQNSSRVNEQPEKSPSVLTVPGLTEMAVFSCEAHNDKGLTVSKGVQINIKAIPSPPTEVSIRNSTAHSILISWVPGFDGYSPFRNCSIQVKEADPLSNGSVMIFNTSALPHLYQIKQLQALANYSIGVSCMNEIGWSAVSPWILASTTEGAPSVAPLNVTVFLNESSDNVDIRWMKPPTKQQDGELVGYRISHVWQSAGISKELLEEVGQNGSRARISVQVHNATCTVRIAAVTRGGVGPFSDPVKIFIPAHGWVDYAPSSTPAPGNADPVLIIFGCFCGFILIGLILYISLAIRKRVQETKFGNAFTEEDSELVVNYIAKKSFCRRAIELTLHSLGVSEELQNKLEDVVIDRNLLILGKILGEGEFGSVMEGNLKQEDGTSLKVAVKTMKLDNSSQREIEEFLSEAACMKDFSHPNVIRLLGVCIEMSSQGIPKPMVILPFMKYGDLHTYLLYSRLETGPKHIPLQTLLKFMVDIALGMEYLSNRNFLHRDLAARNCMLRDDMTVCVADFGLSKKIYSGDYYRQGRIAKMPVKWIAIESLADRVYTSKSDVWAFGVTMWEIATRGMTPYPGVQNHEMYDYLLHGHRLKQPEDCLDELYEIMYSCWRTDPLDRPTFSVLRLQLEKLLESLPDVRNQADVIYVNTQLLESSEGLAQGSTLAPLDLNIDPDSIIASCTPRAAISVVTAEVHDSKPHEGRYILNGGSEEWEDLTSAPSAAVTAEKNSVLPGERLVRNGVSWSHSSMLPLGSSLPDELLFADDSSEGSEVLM

First: AFAEVYEGQVS [ALK_Y1131_G1128A]
Second: ERSMSYCDESR [SMG1_Y143_S144C]
The phosphorylation enrichment of the first is higher: 0.484 for the first, 0.43 for the second.

Going from RGNMYYENSYA [EGFR_Y113] to SISLKYEGRVY [ABL1_Y167_R166K], the phosphorylation enrichment falls from 2.85 to 0.451.

First: ATQDNYVLEVR [PTPRZ1_Y2179_D2178N]
Second: NDHHFYLEGTL [ALDOB_Y223_V222F]
The phosphorylation enrichment of the first is higher: 0.45 for the first, 0.409 for the second.

Compared with RGRKVYLEDGF [PRIM2_Y201], KSMFVYCTPNK [ATP2A2_Y497_S495F] is lower in phosphorylation enrichment: 1.15 for the first, 0.452 for the second.

First: KSLFHYRQFSA [CPS1_Y1491_YF]
Second: WRPFGYPRRRR [BCS1L_Y181]
The phosphorylation enrichment of the first is lower: 0.415 for the first, 0.487 for the second.

First: EVDETYVPKEF [ALB_Y521]
Second: DSGRDYVSQFE [APOA1_Y53]
The phosphorylation enrichment of the first is higher: 0.491 for the first, 0.409 for the second.

First: YRASYYRKGGC [ALK_Y1283]
Second: VGQRPYRPLPE [REEP3_Y170_Q171R]
The phosphorylation enrichment of the first is higher: 0.561 for the first, 0.473 for the second.

First: PHMQTYEVDPN [SDHB_Y61_L65P]
Second: LGPDGYSTVDR [ARVCF_Y901]
The phosphorylation enrichment of the first is lower: 0.522 for the first, 0.553 for the second.

Going from CKLCQYFLDHL [ATRX_Y1849_Y1847C_YF] to FTAVGYHKHFT [NOMO1_Y1137_I1141F], the phosphorylation enrichment falls from 0.49 to 0.424.

First: EFQLPYFNMVP [BMPR1A_Y457_YF]
Second: SLIEHYEPSET [PLCD1_Y258_R257H]
The phosphorylation enrichment of the first is higher: 0.584 for the first, 0.422 for the second.

Compared with GHNNVYISEHV [GRIN2A_Y1423_D1421N], NYSKMYCNPDA [KNL1_Y489_A486S] is lower in phosphorylation enrichment: 0.419 for the first, 0.414 for the second.

Compared with VQQVIYATRAL [MYH7_Y422_G425R], GCRSKYVRLWG [KCNQ1_Y184_G186R] is lower in phosphorylation enrichment: 0.711 for the first, 0.444 for the second.

Compared with RNGDRYFKEIV [DCX_Y64_G67E], FKNGDYNEVMK [LCT_Y1638] is lower in phosphorylation enrichment: 0.514 for the first, 0.388 for the second.

Compared with SPDMLYQFLKQ [RPAP3_Y567_YF], MSRNLYSGDCY [DDR2_Y736_Y740C] is lower in phosphorylation enrichment: 4.98 for the first, 4.75 for the second.

First: KVKVEYDMTVP [AHNAK_Y964_G962V]
Second: GAEIVYKSPVV [MAPT_Y711]
The phosphorylation enrichment of the first is lower: 0.478 for the first, 0.558 for the second.

Going from PADSGYPAFLG [ATP6V1A_Y374_YF] to GAVGNYSGGLA [MGMT_Y158], the phosphorylation enrichment falls from 0.87 to 0.422.

For NHFKIYNLFAE [PTEN_Y68_C71Y_YF], the phosphorylation enrichment was 0.329.

molecular target: c-Src SH2; experiment: SH2 binding enrichment of the phosphorylated peptide, bacterial display (enrichment ratio); higher = better substrate or ligand; peptides without Tyr show the background

First: AFAEVYEGQVS [ALK_Y1131_G1128A]
Second: ERSMSYCDESR [SMG1_Y143_S144C]
The SH2 binding enrichment of the first is lower: 0.506 for the first, 0.644 for the second.

Compared with RGNMYYENSYA [EGFR_Y113], SISLKYEGRVY [ABL1_Y167_R166K] is lower in SH2 binding enrichment: 5.02 for the first, 0.388 for the second.

Compared with ATQDNYVLEVR [PTPRZ1_Y2179_D2178N], NDHHFYLEGTL [ALDOB_Y223_V222F] is higher in SH2 binding enrichment: 0.628 for the first, 0.67 for the second.

Compared with RGRKVYLEDGF [PRIM2_Y201], KSMFVYCTPNK [ATP2A2_Y497_S495F] is higher in SH2 binding enrichment: 0.435 for the first, 0.679 for the second.

Compared with KSLFHYRQFSA [CPS1_Y1491_YF], WRPFGYPRRRR [BCS1L_Y181] is lower in SH2 binding enrichment: 0.395 for the first, 0.349 for the second.

Compared with EVDETYVPKEF [ALB_Y521], DSGRDYVSQFE [APOA1_Y53] is lower in SH2 binding enrichment: 0.498 for the first, 0.487 for the second.

Going from YRASYYRKGGC [ALK_Y1283] to VGQRPYRPLPE [REEP3_Y170_Q171R], the SH2 binding enrichment rises from 0.484 to 0.59.

Compared with PHMQTYEVDPN [SDHB_Y61_L65P], LGPDGYSTVDR [ARVCF_Y901] is higher in SH2 binding enrichment: 0.555 for the first, 29.2 for the second.

Compared with CKLCQYFLDHL [ATRX_Y1849_Y1847C_YF], FTAVGYHKHFT [NOMO1_Y1137_I1141F] is lower in SH2 binding enrichment: 1.1 for the first, 1.04 for the second.

Going from EFQLPYFNMVP [BMPR1A_Y457_YF] to SLIEHYEPSET [PLCD1_Y258_R257H], the SH2 binding enrichment rises from 0.751 to 0.929.

Going from GHNNVYISEHV [GRIN2A_Y1423_D1421N] to NYSKMYCNPDA [KNL1_Y489_A486S], the SH2 binding enrichment rises from 0.469 to 2.63.

Compared with VQQVIYATRAL [MYH7_Y422_G425R], GCRSKYVRLWG [KCNQ1_Y184_G186R] is higher in SH2 binding enrichment: 0.518 for the first, 1.54 for the second.

Going from RNGDRYFKEIV [DCX_Y64_G67E] to FKNGDYNEVMK [LCT_Y1638], the SH2 binding enrichment rises from 0.393 to 1.77.

First: SPDMLYQFLKQ [RPAP3_Y567_YF]
Second: MSRNLYSGDCY [DDR2_Y736_Y740C]
The SH2 binding enrichment of the first is lower: 0.499 for the first, 0.746 for the second.

Going from KVKVEYDMTVP [AHNAK_Y964_G962V] to GAEIVYKSPVV [MAPT_Y711], the SH2 binding enrichment falls from 0.79 to 0.418.

Going from PADSGYPAFLG [ATP6V1A_Y374_YF] to GAVGNYSGGLA [MGMT_Y158], the SH2 binding enrichment falls from 0.423 to 0.367.

molecular target: SHP2-C SH2; experiment: as above

First: AFAEVYEGQVS [ALK_Y1131_G1128A]
Second: ERSMSYCDESR [SMG1_Y143_S144C]
The SH2 binding enrichment of the first is lower: 0.769 for the first, 1.28 for the second.

First: RGNMYYENSYA [EGFR_Y113]
Second: SISLKYEGRVY [ABL1_Y167_R166K]
The SH2 binding enrichment of the first is higher: 0.978 for the first, 0.66 for the second.

First: ATQDNYVLEVR [PTPRZ1_Y2179_D2178N]
Second: NDHHFYLEGTL [ALDOB_Y223_V222F]
The SH2 binding enrichment of the first is lower: 0.557 for the first, 0.745 for the second.

First: RGRKVYLEDGF [PRIM2_Y201]
Second: KSMFVYCTPNK [ATP2A2_Y497_S495F]
The SH2 binding enrichment of the first is lower: 0.353 for the first, 0.484 for the second.

First: KSLFHYRQFSA [CPS1_Y1491_YF]
Second: WRPFGYPRRRR [BCS1L_Y181]
The SH2 binding enrichment of the first is lower: 0.601 for the first, 0.66 for the second.

First: EVDETYVPKEF [ALB_Y521]
Second: DSGRDYVSQFE [APOA1_Y53]
The SH2 binding enrichment of the first is higher: 0.651 for the first, 0.631 for the second.

Going from YRASYYRKGGC [ALK_Y1283] to VGQRPYRPLPE [REEP3_Y170_Q171R], the SH2 binding enrichment rises from 0.512 to 0.68.

First: PHMQTYEVDPN [SDHB_Y61_L65P]
Second: LGPDGYSTVDR [ARVCF_Y901]
The SH2 binding enrichment of the first is lower: 0.717 for the first, 1.18 for the second.

Compared with CKLCQYFLDHL [ATRX_Y1849_Y1847C_YF], FTAVGYHKHFT [NOMO1_Y1137_I1141F] is higher in SH2 binding enrichment: 1.18 for the first, 1.5 for the second.

First: EFQLPYFNMVP [BMPR1A_Y457_YF]
Second: SLIEHYEPSET [PLCD1_Y258_R257H]
The SH2 binding enrichment of the first is higher: 0.95 for the first, 0.806 for the second.

Compared with GHNNVYISEHV [GRIN2A_Y1423_D1421N], NYSKMYCNPDA [KNL1_Y489_A486S] is higher in SH2 binding enrichment: 0.759 for the first, 0.819 for the second.

First: VQQVIYATRAL [MYH7_Y422_G425R]
Second: GCRSKYVRLWG [KCNQ1_Y184_G186R]
The SH2 binding enrichment of the first is lower: 1.06 for the first, 1.6 for the second.

Compared with RNGDRYFKEIV [DCX_Y64_G67E], FKNGDYNEVMK [LCT_Y1638] is higher in SH2 binding enrichment: 0.588 for the first, 0.642 for the second.

Going from SPDMLYQFLKQ [RPAP3_Y567_YF] to MSRNLYSGDCY [DDR2_Y736_Y740C], the SH2 binding enrichment falls from 0.683 to 0.614.

Going from KVKVEYDMTVP [AHNAK_Y964_G962V] to GAEIVYKSPVV [MAPT_Y711], the SH2 binding enrichment falls from 0.659 to 0.63.

Compared with PADSGYPAFLG [ATP6V1A_Y374_YF], GAVGNYSGGLA [MGMT_Y158] is higher in SH2 binding enrichment: 0.502 for the first, 0.622 for the second.

molecular target: Grb2 SH2 (UniProt P62993); experiment: as above
Sequence (P62993 whole entry, looked up): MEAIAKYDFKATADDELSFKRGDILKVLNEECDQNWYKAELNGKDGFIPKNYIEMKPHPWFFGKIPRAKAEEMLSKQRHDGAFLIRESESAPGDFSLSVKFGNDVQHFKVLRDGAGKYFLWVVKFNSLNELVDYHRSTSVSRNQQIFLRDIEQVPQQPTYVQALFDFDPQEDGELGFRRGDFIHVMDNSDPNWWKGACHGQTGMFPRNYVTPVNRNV

First: AFAEVYEGQVS [ALK_Y1131_G1128A]
Second: ERSMSYCDESR [SMG1_Y143_S144C]
The SH2 binding enrichment of the first is lower: 0.888 for the first, 0.951 for the second.

Going from RGNMYYENSYA [EGFR_Y113] to SISLKYEGRVY [ABL1_Y167_R166K], the SH2 binding enrichment falls from 10.5 to 0.814.

Going from ATQDNYVLEVR [PTPRZ1_Y2179_D2178N] to NDHHFYLEGTL [ALDOB_Y223_V222F], the SH2 binding enrichment rises from 0.651 to 0.787.

Compared with RGRKVYLEDGF [PRIM2_Y201], KSMFVYCTPNK [ATP2A2_Y497_S495F] is lower in SH2 binding enrichment: 1 for the first, 0.925 for the second.

First: KSLFHYRQFSA [CPS1_Y1491_YF]
Second: WRPFGYPRRRR [BCS1L_Y181]
The SH2 binding enrichment of the first is higher: 0.734 for the first, 0.731 for the second.

First: EVDETYVPKEF [ALB_Y521]
Second: DSGRDYVSQFE [APOA1_Y53]
The SH2 binding enrichment of the first is higher: 0.881 for the first, 0.875 for the second.

First: YRASYYRKGGC [ALK_Y1283]
Second: VGQRPYRPLPE [REEP3_Y170_Q171R]
The SH2 binding enrichment of the first is lower: 0.691 for the first, 0.957 for the second.

First: PHMQTYEVDPN [SDHB_Y61_L65P]
Second: LGPDGYSTVDR [ARVCF_Y901]
The SH2 binding enrichment of the first is higher: 0.974 for the first, 0.927 for the second.

Going from CKLCQYFLDHL [ATRX_Y1849_Y1847C_YF] to FTAVGYHKHFT [NOMO1_Y1137_I1141F], the SH2 binding enrichment falls from 1.46 to 0.865.

Going from EFQLPYFNMVP [BMPR1A_Y457_YF] to SLIEHYEPSET [PLCD1_Y258_R257H], the SH2 binding enrichment falls from 2.82 to 0.927.

Going from GHNNVYISEHV [GRIN2A_Y1423_D1421N] to NYSKMYCNPDA [KNL1_Y489_A486S], the SH2 binding enrichment rises from 0.915 to 3.18.

Compared with VQQVIYATRAL [MYH7_Y422_G425R], GCRSKYVRLWG [KCNQ1_Y184_G186R] is higher in SH2 binding enrichment: 0.652 for the first, 1.38 for the second.

First: RNGDRYFKEIV [DCX_Y64_G67E]
Second: FKNGDYNEVMK [LCT_Y1638]
The SH2 binding enrichment of the first is higher: 0.749 for the first, 0.744 for the second.

Going from SPDMLYQFLKQ [RPAP3_Y567_YF] to MSRNLYSGDCY [DDR2_Y736_Y740C], the SH2 binding enrichment rises from 0.782 to 0.796.

Going from KVKVEYDMTVP [AHNAK_Y964_G962V] to GAEIVYKSPVV [MAPT_Y711], the SH2 binding enrichment falls from 0.838 to 0.758.

First: PADSGYPAFLG [ATP6V1A_Y374_YF]
Second: GAVGNYSGGLA [MGMT_Y158]
The SH2 binding enrichment of the first is higher: 0.765 for the first, 0.551 for the second.
